Data as given in patent publication US20150315275A1 (AstraZeneca / MedImmune, published 2015).
Changes are numbered by the printed parent chain. In names and notes the source's numbering stands. Several values for one entry are separate records, joined by “and”; a condition that tells them apart may be missing. Equal entries are not always repeated.

T1: B7-H4 fusion protein Variant 1: IgV residues 29-149 of SEQ ID NO:1 (human, UniProt Q7Z7D3 29-149)
T1 construct: Human IgG1 Fc fusion protein; also called IgV only; not shown: human IgG1 Fc
T1 chain: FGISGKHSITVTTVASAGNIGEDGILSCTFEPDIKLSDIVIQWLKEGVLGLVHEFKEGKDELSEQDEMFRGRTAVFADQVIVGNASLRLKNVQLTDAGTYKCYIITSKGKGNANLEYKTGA

T2: B7-H4 fusion protein Variant 2: IgV residues 29-154 of SEQ ID NO:1 (human, UniProt Q7Z7D3 29-154)
T2 construct: Human IgG1 Fc fusion protein; also called IgV only; not shown: human IgG1 Fc
T2 chain: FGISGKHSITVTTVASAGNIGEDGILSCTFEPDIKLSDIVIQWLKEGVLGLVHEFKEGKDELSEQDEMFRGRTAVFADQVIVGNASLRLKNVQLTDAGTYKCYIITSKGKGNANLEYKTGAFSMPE

T3: B7-H4 fusion protein Variant 3: IgV residues 29-158 of SEQ ID NO:1 (human, UniProt Q7Z7D3 29-158)
T3 construct: Human IgG1 Fc fusion protein; also called IgV only; not shown: human IgG1 Fc
T3 chain: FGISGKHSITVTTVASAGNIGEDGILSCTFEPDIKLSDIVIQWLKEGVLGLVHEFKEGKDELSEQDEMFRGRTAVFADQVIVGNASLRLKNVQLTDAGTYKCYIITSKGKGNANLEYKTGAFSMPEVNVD

T4: mouse B7-H4ECD mIgG2a Fc fusion protein (mouse, UniProt Q7TSP5 25-257, limits assumed)
T4 construct: also called mouse B7-H4-mIg fusion protein; Mouse B7-H4-mouse-Ig Fusion Protein; not shown: mouse IgG2a Fc
T4 sequence: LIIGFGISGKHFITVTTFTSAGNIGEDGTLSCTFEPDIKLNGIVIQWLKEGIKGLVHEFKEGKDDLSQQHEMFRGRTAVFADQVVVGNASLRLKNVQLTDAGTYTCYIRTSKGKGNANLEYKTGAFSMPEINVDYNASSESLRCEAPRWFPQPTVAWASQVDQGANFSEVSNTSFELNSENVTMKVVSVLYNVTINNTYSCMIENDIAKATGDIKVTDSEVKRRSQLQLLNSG

T5: B7-H4ECD his-tagged protein (Sinobiologics) (human, UniProt Q7Z7D3 25-259)
T5 construct: Bought protein; Result paragraph calls the target human B7-H4; also called B7-H4 extracellular domain; not shown: his tag
T5 sequence: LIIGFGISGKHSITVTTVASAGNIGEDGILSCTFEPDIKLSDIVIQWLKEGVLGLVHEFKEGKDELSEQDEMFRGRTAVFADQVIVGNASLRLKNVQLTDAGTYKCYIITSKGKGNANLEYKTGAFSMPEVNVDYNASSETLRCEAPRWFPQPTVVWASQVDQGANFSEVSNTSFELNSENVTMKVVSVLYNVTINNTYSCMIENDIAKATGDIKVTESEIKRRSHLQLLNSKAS

T6: human B7-H4 expressed on cells (human, UniProt Q7Z7D3 25-282)
T6 construct: the cell line is named under assay or readout; also called full length human B7-H4 on HEK293 cells; 293T.hB7-H4
T6 sequence: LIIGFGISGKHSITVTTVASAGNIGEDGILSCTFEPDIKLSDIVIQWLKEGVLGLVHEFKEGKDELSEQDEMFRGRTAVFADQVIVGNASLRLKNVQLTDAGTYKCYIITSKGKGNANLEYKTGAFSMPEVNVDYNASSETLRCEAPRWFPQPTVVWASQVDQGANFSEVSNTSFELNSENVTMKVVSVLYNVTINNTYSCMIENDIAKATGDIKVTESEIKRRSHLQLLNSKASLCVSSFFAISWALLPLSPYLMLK

B1: anti-human B7-H4 antibody 2H9 (antibody, V domains shown)
VH: EVQLVESGGNLVKPGGSLKLSCAASGFTFSNSAMSWVRQTPEKRLEWVATISDGGRYTYYPDNVKGRFTISRDNAKNNLYLQMSHLKSEDTALYYCARDRPHWYFDVWGTGATVTVSS
VL: DIVLTQSPASLAVSLGQRATISCRASESIDNYGISFMHWYQQKPGQPPKLLIYRASNLESGIPARFSGSGSRTDFTLTINPVETDDVATYFCQQSDEGRTFGGGTKLEIK
notes: Mouse anti-human B7-H4 antibody; also called clone 2H9
B2: chimeric 6H3 (antibody, V domains shown)
VH: EVQLQQSGPVLVKPGTSVKMSCKASGYTFTDYYMNWVKQSHGKSLEWIGVINPYNGDTTYNQKFKGKATLTVDKSSSTAYMEVNSLTFEDSAVYYCARYPESTYWGQGTLVTVSA
VL: DVVMTQTPLSLPVSLGDQASISCRSSQSLVHINGNTYLHWYLQKPGQSPKVLIYKVSNRFSGVPDRFSGSGSGTDFTLKISRVEAEDLGVYFCSQSTHVPLTFGAGTKLELK
notes: Mouse variable regions with constant regions from the human IgG1 heavy chain and human kappa light chain; also called human chimeric 6H3; hc6H3
B3: humanized 6H3 variant 12 (antibody, V domains shown)
VH: EVQLVQSGAEVKKPGASVKVSCKASGYTFTDYYMNWVRQAPGQGLEWIGIINPYNGDTSYNQKFKGRVTLTVDKSTSTAYMELSSLRSEDTAVYYCARYPESTYWGQGTLVTVSS
VL: B2 VL with V2I, S14T, D17Q, Q18P, K44R, L88V, L109V, L111I
notes: also called V12; 6H3 V12
B4: humanized 6H3 variant 9 (antibody, V domains shown)
VH: B3 VH
VL: DIVMTQTPLSLPVTLGQPASISCRSSQSLVHINGNTYLHWYQQRPGQSPRVLIYKVSNRFSGVPDRFSGSGSGTDFTLKISRVEAEDVGVYFCSQSTHVPLTFGQGTKVEIK
notes: also called V9; 6H3 V9
B5: humanized 6H3 variant 11 (antibody, V domains shown)
VH: B3 VH with V11M, G44S, I50V, S59T, K65Q, L70V, T76A, S77T
VL: B4 VL
notes: also called V11; H2C L2B
B6: humanized 6H3 variant 13 (antibody, V domains shown)
VH: B3 VH with V11M, G44S, I48M, I50V, S59T, K65Q, L70V, T71A, T76A, S77T
VL: B4 VL with Q42L, R50K, Q105A
notes: also called V13; H2B L2C
B7: humanized 6H3 variant 14 (antibody, V domains shown)
VH: B3 VH with V11M, G44S, I50V, S59T, K65Q, L70V, T76A, S77T
VL: B4 VL with Q42L, R50K, Q105A
notes: also called V14; 6H3 V14

Target: T1, B7-H4 fusion protein Variant 1: IgV …
Assay: ELISA, B7-H4 Fc fusion protein immobilized at 1 µg/ml, mouse antibody titrated, anti-mouse Ig HRP
Protocol: (§1) 100 μl 1 μg/ml human IgG1 Fc fusion proteins diluted in PBS consisting of different segments of B7-H4 Extracellular domains were immobilized on flat bottom 96 well plates (Costar 9017) overnight at 4° C. […] Plates were washed twice with PBS+0.1% PS-20 and blocked with 200 μl/well PBS 10% FBS at RT for 1 hr. A titration of mouse anti-human B7-H4 antibodies 2H9, 2D1, 2E11, 6H3, 8E11 or H74 diluted in PBS 10% FBS were added to the plates and incubated at RT for 1 hr. Plates were washed three times and 100 μl 1 μg/ml anti-mouse Ig HRP (Sigma) was added to each well and incubated at RT for 1 hr. Plates were washed six times and 100 μl TMB substrate (SurModics) was added to each well for 5-15 mins. 100 μl stop solution (0.1M Sulfuric acid) was added to each well. Plates were read at Absorbance 450 nm by PerkinElmer EnVision 2104 Multilabel Reader.

Row | Binder | binding result
1 | B1 | binds

Target: T2, B7-H4 fusion protein Variant 2: IgV …
Assay: as above
Protocol: as §1

Row | Binder | binding result
2 | B1 | binds

Target: T3, B7-H4 fusion protein Variant 3: IgV …
Assay: as above
Protocol: as §1

Row | Binder | binding result
3 | B1 | binds

Target: T7, B7-H4-Ig fusion protein (human)
T7 construct: also called human B7-H4 Ig
Assay: competition ELISA on B7-H4-Ig-coated plate, Plate 1; competitor biotinylated mouse 6H3 (5 ng/ml)
Protocol: (§2) A 12-point, 3-fold dilution series of 14 humanized 6H3 antibody variants was prepared ranging from 100 μg/ml to 0.5 ng/ml. Dilutions were prepared in assay diluent containing biotinylated mouse anti-human B7-H4 6H3 (SEQ ID NOS:3 and 5 for light chain variable region and heavy chain variable region respectively) at 5 ng/ml. Antibodies were allowed to bind to B7-H4-Ig-coated assay plates (200 ng/well) for 1 hour at room temperature and detected with streptavidin HRP.

Row | Binder | EC50
4 | B2 | 2.44 µg/mL and 16.2 nM

Target: T7, B7-H4-Ig fusion protein
Assay: competition ELISA on B7-H4-Ig-coated plate, Plate 2; competitor biotinylated mouse 6H3 (5 ng/ml)
Protocol: as §2

Row | Binder | EC50
5 | B2 | 2.26 µg/mL and 15.1 nM
6 | B3 | 3 µg/mL and 20 nM
7 | B4 | 2.69 µg/mL and 17.9 nM
8 | B5 | 2.2 µg/mL and 14.7 nM
9 | B6 | 2.11 µg/mL and 14.1 nM
10 | B7 | 2.49 µg/mL and 16.6 nM

Target: T4, mouse B7-H4ECD mIgG2a Fc fusion protein
Assay: ELISA, mouse B7-H4ECD mIgG2a Fc fusion coated
Protocol: 100 μg/ml mouse B7-H4ECD mIgG2a Fc fusion protein diluted in PBS was immobilized on flat bottom 96 well plate (Costar 9017) overnight at 4° C. Plates were washed twice with PBS+0.1% PS-20 and blocked with 200 μl/well PBS 10% FBS at RT for 1 hr. 100 μl chimeric 6H3 and 14 selected 6H3 humanized variants diluted in PBS 10% FBS were added to each well and incubated at RT for 1 hr. Plates were washed three times and 100 μl 1 μg/ml anti-human Ig HRP (Sigma) was added to each well and incubated at RT for 1 hr. Plates were washed six times and 100 μl TMB substrate (SurModics) was added to each well for 5-15 mins 100 μl stop solution (0.1M Sulfuric acid) was added to each well. Plates were read at Absorbance 450 nm by PerkinElmer EnVision 2104 Multilabel Reader.

Row | Binder | EC50
11 | B2 | 0.09 nM
12 | B3 | 0.09 nM
13 | B4 | 0.07 nM
14 | B5 | 0.11 nM
15 | B6 | 0.13 nM
16 | B7 | 0.11 nM

Target: T5, B7-H4ECD his-tagged protein …
Assay: ELISA, B7-H4ECD his-tagged protein coated
Protocol: 100 μl 1 μg/ml B7-H4ECD his-tagged protein (Sinobiologics) diluted in PBS was immobilized on flat bottom 96 well plate (Costar 9017) overnight at 4° C. Plates were washed twice with PBS+0.1% PS-20 and blocked with 200 μl/well PBS 10% FBS at RT for 1 hr. 100 μl chimeric 6H3 and 14 selected 6H3 humanized variants diluted in PBS 10% FBS were added to each well and incubated at RT for 1 hr. Plates were washed three times and 100 μl 1 μg/ml anti-human Ig HRP (Sigma) was added to each well and incubated at RT for 1 hr. Plates were washed six times and 100 μl TMB substrate (SurModics) was added to each well for 5-15 mins 100 μl stop solution (0.1M Sulfuric acid) was added to each well. Plates were read at Absorbance 450 nm by PerkinElmer EnVision 2104 Multilabel Reader.

Row | Binder | EC50
17 | B2 | 0.62 nM
18 | B3 | 0.78 nM
19 | B4 | 0.75 nM
20 | B5 | 0.97 nM
21 | B6 | 0.92 nM
22 | B7 | 0.68 nM

Target: T6, human B7-H4 expressed on cells
Assay: saturation binding, flow cytometry on 624mel/B7-H4 cells, biotinylated mAb, azide-treated cells; unit not given
Protocol: A saturation binding experiment was carried out on 624mel/B7-H4 cells using the chimeric 6H3 mAb and humanized variants of 6H3. Briefly, 50,000 cells were pretreated with 0.1% azide on ice for 30 minutes to inhibit B7-H4 internalization then stained for 30 minutes with biotinylated anti-B7-H4 mAbs. The mAbs were diluted in a 12-point, 3-fold dilution series ranging from 200 μg/ml down to 1 ng/ml. Cell were stained with streptavidin PE for 10 minutes, washed, fixed and analyzed by flow cytometry.
FIGS. 35A-35B are binding curves for the raw (FIG. 35A) and background subtracted data (FIG. 35B). […] The subtracted values were used to determine the Kd and Bmax. The antibodies appear to fall into two groups based on Kd values (Table 10).

Row | Binder | Bmax
23 | B2 | 5810
24 | B3 | 4580
25 | B4 | 4610
26 | B7 | 5580

Target: T6, human B7-H4 expressed on cells
Assay: flow cytometry on HEK293.hB7-H4 transfectants, one-site specific binding fit
Protocol: For each staining, 0.2 million HEK293.hB7-H4 transfectants were resuspended in 100 μl flow cytometry buffer (PBS+2% FBS). A serial dilution of chimeric 6H3 and 14 humanized variants of 0, 0.1 ng, 0.3 ng, 1 ng, 3 ng, 10 ng, 30 ng, 100 ng, 300 ng, 1 μg, 3 μg and 10 μg were added to the cells and incubated at 4° C. for 30 min. Cells were then washed twice with 2 ml flow cytometry buffer, and resuspended in 100 μl flow cytometry buffer. 1 μl anti-hIg PE secondary antibody (Biolegend) was added and incubated with the cells for 15 mins Samples were then washed and resuspended in 100 μl flow cytometry buffer. Flow Cytometry data was acquired using BD Canto (BD Biosciences) in plate format and analyzed by FlowJo software. Staining data (MFI) was then input into Prism 5 software to generate binding curve. Curve-fit using one-site specific binding algorithm calculates individual KD for each variant.

Row | Binder | Bmax(MFI) | Kd
27 | B2 | 316 MFI | 5.8 nM
28 | B3 | 597 MFI | 3.2 nM
29 | B4 | 553 MFI | 1.8 nM
30 | B5 | 648 MFI | 6.9 nM
31 | B6 | 648 MFI | 7 nM
32 | B7 | 629 MFI | 5.8 nM
